In US20180155451A1 (published 2018):

T1: FcγRIIa R (human, UniProt P12318 34-217)
T1 construct: extracellular domain; also called FcgRIIa R type; 2aR
T1 sequence (looked up): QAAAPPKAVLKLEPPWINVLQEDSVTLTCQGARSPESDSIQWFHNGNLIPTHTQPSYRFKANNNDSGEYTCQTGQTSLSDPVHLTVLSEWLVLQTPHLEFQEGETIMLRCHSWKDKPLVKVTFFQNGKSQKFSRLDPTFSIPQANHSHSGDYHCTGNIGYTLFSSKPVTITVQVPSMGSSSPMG

T2: FcγRIIb (human, UniProt P31994 43-217)
T2 construct: extracellular domain; also called FcgRIIb; 2b
T2 sequence (looked up): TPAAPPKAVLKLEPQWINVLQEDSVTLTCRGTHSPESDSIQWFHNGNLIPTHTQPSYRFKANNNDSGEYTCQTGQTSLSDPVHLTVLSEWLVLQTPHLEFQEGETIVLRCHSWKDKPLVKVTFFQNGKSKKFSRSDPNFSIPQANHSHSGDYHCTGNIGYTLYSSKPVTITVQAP

B1: GpH7-A5/GpH7-B3 variant E269_18N/GpL16-k0 (antibody, human IgG1, kappa)
heavy 1: not shown
heavy 2: not shown
light: DIVMTQSPLSLPVTPGEPASISCQASESLVHSNRNTYLHWYLQKPGQSPQLLIYKVSNRFSGVPDRFSGSGSGTDFTLKISRVEAEDVGVYYCSQNTHVPPTFGQGTKVEIERTVAAPSVFIFPPSDEQLKSGTASVVCLLNNFYPREAKVQWKVDNALQSGNSQESVTEQDSKDSTYSLSSTLTLSKADYEKHKVYACEVTHQGLSSPVTKSFNRGEC
notes: heterodimerized antibody, mutation in the GpH7-B3 chain only; also called He Ab
B2: GpH7-A5/GpH7-B3 variant D265_11K/GpL16-k0 (antibody, human IgG1, kappa)
heavy 1: not shown
heavy 2: not shown
light: B1 light
notes: as for B1
B3: GpH7-A5/GpH7-B3 variant D265_16H/GpL16-k0 (antibody, human IgG1, kappa)
heavy 1: not shown
heavy 2: not shown
light: B1 light
notes: as for B1
B4: GpH7-A5/GpH7-B3 variant H268_08L/GpL16-k0 (antibody, human IgG1, kappa)
heavy 1: not shown
heavy 2: not shown
light: B1 light
notes: as for B1
B5: GpH7-A5/GpH7-B3 variant D265_13S/GpL16-k0 (antibody, human IgG1, kappa)
heavy 1: not shown
heavy 2: not shown
light: B1 light
notes: as for B1
B6: GpH7-A5/GpH7-B3 variant E269_15Y/GpL16-k0 (antibody, human IgG1, kappa)
heavy 1: not shown
heavy 2: not shown
light: B1 light
notes: as for B1
B7: GpH7-A5/GpH7-B3 variant H268_06M/GpL16-k0 (antibody, human IgG1, kappa)
heavy 1: not shown
heavy 2: not shown
light: B1 light
notes: as for B1
B8: GpH7-A5/GpH7-B3 variant E269_14T/GpL16-k0 (antibody, human IgG1, kappa)
heavy 1: not shown
heavy 2: not shown
light: B1 light
notes: as for B1
B9: GpH7-A5/GpH7-B3 variant E269_13S/GpL16-k0 (antibody, human IgG1, kappa)
heavy 1: not shown
heavy 2: not shown
light: B1 light
notes: as for B1
B10: GpH7-A5/GpH7-B3 variant P271_15Y/GpL16-k0 (antibody, human IgG1, kappa)
heavy 1: not shown
heavy 2: not shown
light: B1 light
notes: as for B1
B11: GpH7-A5/GpH7-B3 variant E269_12R/GpL16-k0 (antibody, human IgG1, kappa)
heavy 1: not shown
heavy 2: not shown
light: B1 light
notes: as for B1
B12: GpH7-A5/GpH7-B3 variant E269_19Q/GpL16-k0 (antibody, human IgG1, kappa)
heavy 1: not shown
heavy 2: not shown
light: B1 light
notes: as for B1
B13: GpH7-A5/GpH7-B3 variant H268_11K/GpL16-k0 (antibody, human IgG1, kappa)
heavy 1: not shown
heavy 2: not shown
light: B1 light
notes: as for B1
B14: GpH7-A5/GpH7-B3 variant D265_19Q/GpL16-k0 (antibody, human IgG1, kappa)
heavy 1: not shown
heavy 2: not shown
light: B1 light
notes: as for B1
B15: GpH7-A5/GpH7-B3 variant E269_03V/GpL16-k0 (antibody, human IgG1, kappa)
heavy 1: not shown
heavy 2: not shown
light: B1 light
notes: as for B1

Target: T1, FcγRIIa R
Assay: SPR; He/Con_2aR divided by He/Con_2b (FcγRIIb as reference)
Method: (§1) The heterodimerized antibodies He Abs in which one of the H chains was introduced with an alteration were assayed for their binding activities to each activating FcγR and inhibitory FcγR according to the method described in Example 4. […] The activating FcγRs in FIGS. 26, 27, 28, and 29 are FcγRIa, FcγRIIa (R), FcγRIIa (H), and FcγRIIIa, respectively.
(§2) Analysis of interaction between objective antibody and the FcγR was carried out using Biacore T100 (GE Healthcare). HBS-EP+ (GE Healthcare) was used as the running buffer, and the measurement temperature was set to 25° C. Chips produced by immobilizing the antigen peptide by the amine coupling method to a Series S Sencor Chip CM5 (GE Healthcare), or alternatively, chips produced by allowing preliminarily biotinylated antigen peptides to interact with and immobilize onto a Series S Sensor Chip SA (certified) (GE Healthcare) were used. Antibodies of interest were captured onto an antigen peptide-immobilized chip, and allowed to interact to each FcγR diluted with running buffer. To regenerate and repeatedly use the chip, the antibodies captured on the chip were washed off by reacting 10 mM glycine-HCl, pH 1.5.

| Binder | IIaR/IIb (He_2aR/2b) [ratio] |
| --- | --- |
| B1 | 1.32 |
| B2 | 2.26 |
| B3 | 1.51 |
| B4 | 1.25 |
| B5 | 1.81 |
| B6 | 1.29 |
| B7 | 1.23 |
| B8 | 1.3 |
| B9 | 1.28 |
| B10 | 1.35 |
| B11 | 1.39 |
| B12 | 1.31 |
| B13 | 1.21 |
| B14 | 1.64 |
| B15 | 1.3 |

Target: T1, FcγRIIa R
Assay: SPR (Biacore), antibody captured, FcγR as analyte; relative binding
Method: as §1, §2

| Binder | He/Con_2aR (IIaR binding) |
| --- | --- |
| B1 | 59.2 % of GpH7-A5/GpH7-B3/GpL16-k0 (=100) |
| B2 | 33.7 % of GpH7-A5/GpH7-B3/GpL16-k0 (=100) |
| B3 | 58 % of GpH7-A5/GpH7-B3/GpL16-k0 (=100) |
| B4 | 85 % of GpH7-A5/GpH7-B3/GpL16-k0 (=100) |
| B5 | 20.5 % of GpH7-A5/GpH7-B3/GpL16-k0 (=100) |
| B6 | 57.6 % of GpH7-A5/GpH7-B3/GpL16-k0 (=100) |
| B7 | 81 % of GpH7-A5/GpH7-B3/GpL16-k0 (=100) |
| B8 | 66 % of GpH7-A5/GpH7-B3/GpL16-k0 (=100) |
| B9 | 61.2 % of GpH7-A5/GpH7-B3/GpL16-k0 (=100) |
| B10 | 70.7 % of GpH7-A5/GpH7-B3/GpL16-k0 (=100) |
| B11 | 35 % of GpH7-A5/GpH7-B3/GpL16-k0 (=100) |
| B12 | 57.8 % of GpH7-A5/GpH7-B3/GpL16-k0 (=100) |
| B13 | 100 % of GpH7-A5/GpH7-B3/GpL16-k0 (=100) |
| B14 | 54.8 % of GpH7-A5/GpH7-B3/GpL16-k0 (=100) |
| B15 | 58.8 % of GpH7-A5/GpH7-B3/GpL16-k0 (=100) |

Target: T2, FcγRIIb
Assay: as above
Method: as §1, §2

| Binder | He/Con_2b (IIb binding) |
| --- | --- |
| B1 | 44.8 % of GpH7-A5/GpH7-B3/GpL16-k0 (=100) |
| B2 | 14.9 % of GpH7-A5/GpH7-B3/GpL16-k0 (=100) |
| B3 | 38.3 % of GpH7-A5/GpH7-B3/GpL16-k0 (=100) |
| B4 | 67.8 % of GpH7-A5/GpH7-B3/GpL16-k0 (=100) |
| B5 | 11.3 % of GpH7-A5/GpH7-B3/GpL16-k0 (=100) |
| B6 | 44.7 % of GpH7-A5/GpH7-B3/GpL16-k0 (=100) |
| B7 | 65.7 % of GpH7-A5/GpH7-B3/GpL16-k0 (=100) |
| B8 | 50.6 % of GpH7-A5/GpH7-B3/GpL16-k0 (=100) |
| B9 | 47.8 % of GpH7-A5/GpH7-B3/GpL16-k0 (=100) |
| B10 | 52.3 % of GpH7-A5/GpH7-B3/GpL16-k0 (=100) |
| B11 | 25.2 % of GpH7-A5/GpH7-B3/GpL16-k0 (=100) |
| B12 | 44.3 % of GpH7-A5/GpH7-B3/GpL16-k0 (=100) |
| B13 | 83 % of GpH7-A5/GpH7-B3/GpL16-k0 (=100) |
| B14 | 33.4 % of GpH7-A5/GpH7-B3/GpL16-k0 (=100) |
| B15 | 45.1 % of GpH7-A5/GpH7-B3/GpL16-k0 (=100) |
